Source: patent publication US5547938A, “Therapeutic agent for digestive tract diseases using glicentin” (Nisshin Flour Milling Co., Ltd., priority 1993, dated 1996)
Ends that are not written are not given here.

B1: Glicentin: Enteroglucagon peptide comprising 69 amino acid residues (SEQ ID NO:1), prepared by genetic engineering procedure (protein)
chain: RSLQDTEEKSRSFSASQADPLSDPDQMNEDKRHSQGTFTSDYSKYLDSRRAQDFVQWLMNTKRNRNNIA

Key:
[1] = tested on: intestinal mucosa; assay: Example 2: intestinal mucosal weight in rats after subcutaneous glicentin or control peptides; format: in vivo; settings: 1 nmol per rat s.c.; for Intestinal mucosal weight: third of four equal parts of small intestine from the duodenum
Protocol: A solution of glicentin dissolved in a small amount of distilled water for injection was diluted with a 2% solution of bovine albumin prepared with a physiological saline solution for injection to a concentration of 400 μg/ml (50 nmol/ml). The solution was frozen and stored until used. On use it was 1:10 diluted with the physiological saline solution and subcutaneously given to rats at a dose of 0.2 ml, i.e., 1 nmol of glicentin per rat.
They were prepared and administered in the same way as glicentin at a dose of 1 nmol.
The small intestine was divided equally into four parts and the third part from the duodenum was measured for the weight of the mucosa.

[2] = tested on: intestinal mucosae; assay: Example 1: nutritional (trophic) effect of glicentin on the intestinal mucosae of rats fed an elemental nutrition; format: in vivo, rat; settings: 10 μg s.c. every 12 hours for 7 days
Protocol: An experiment was performed in male SD rats weighing 140-160 g which had been fed on standard food under light-dark condition of a cycle of 12 hours. The food which was replaced by an elemental nutrition (Elental®, Morishita-Roussel Japan) was taken ad lib., and remained unchanged until the experiment was finished. After feeding on the component nutrition for 3 days, administration of glicentin prepared as described below was started.
Gelatin was dissolved in warm water to a weight ratio of 16%, and the solution autoclaved and cooled to room temperature. To 40 ml of the gelatin solution was added a solution of 1 mg of glicentin in 10 ml of distilled water with stirring at room temperature. The mixture was divided into test tubes, freeze dried and stored for use.
The gelatin solution was subcutaneously given at a dose of 10 μg per glicentin every 12 hours for 7 days to examine a nutritional effect of glicentin on the intestinal mucosae. A similar gelatin solution containing no glicentin was given for the same period of time as a control for comparison. Twelve hours after completion of the final administration, the rats were sacrificed and subjected to removal of the small intestine in the region from the Treitz's ligamentum to the cecum. The removed small intestine was cut at the central site to separate it into the jejunum and the ileum. The lumen of each of the intestinal tracts was gently washed with an aqueous physiological saline solution. The intestinal tracts were longitudinally incised, respectively, and tissues were removed of a portion of the jejunum in proximity to the duodenum, a portion of the ileum in proximity to the cecum and a portion around the boundary between the jejunum and the ileum and fixed in a 3.7% formalin solution as the proximal, distal and middle sites of the small intestine, respectively. Mucosae were collected by ablation with a spatula from the remainder of the intestinal tracts and weighed, respectively.
The tissues fixed in the formalin solution were embedded in paraffin to form a preparation which was stained with hematoxylin-eosin and measured for height of the villi using an optical microscope.

[3] = tested on: male BALB/c mice; assay: Intraperitoneal administration of human glicentin to mice, appearance observed; format: in vivo, mouse; settings: 10 mg/kg intraperitoneally, male BALB/c mice (6 weeks age)
[4] = tested on: digestive tracts (gastric antrum, duodenum, jejunum); assay: Example 3: motility of the digestive tracts after meal in dogs (strain gauge transducers); format: in vivo, dog; settings: 400 pmol/kg i.v. over 1 hour
Protocol: An experiment was performed as described below in order to examine the action of glicentin on a motility of the digestive tracts after meal.
Six hybrid dogs weighing 16-18 kg were sutured with strain gauge transducers (manufactured by Star Medical, F121S) at a site of the gastric antrum 4 cm from the pyloric ring, a site of the duodenum for the main incurrent pancreatic duct and a site of the jejunum 10 cm from the Treitz's ligamentum, respectively, to measure the contractile force intensity of the circular muscle. Recovery period for the suture was 2 weeks.
Three of the 6 dogs were intravenously given over 1 hour 15 ml of a physiological saline solution in which 400 pmol of glicentin had been dissolved per kg of bodyweight. The remaining three received an aqueous physiological solution containing no glicentin in the same way as above as a control for comparison. The dogs were fed on 15 g of a solid diet (SD®, manufactured by Oriental Yeast K. K.) and 15 g of Vitaone® (manufactured by Nihon Pet Food K. K. and Kyodo Shiryo K. K. ) per kg of bodyweight simultaneously with the intravenous administration.
Then, the motor activity of the digestive tracts and length of the post-feed period were measured. Intensity of the contraction in the post-feed period was integrated for the two-hour measurements and evaluated in comparison with the mean level of the signal peak in phase 3 motor activity of the intestinal tracts in hunger and taken as a motor index.

[5] = post-feed contraction integrated over two hours relative to phase 3 peak

| Molecule | Intestinal mucosal weight [1] | Ileal mucosal weight per 100 g bodyweight [2] | Jejunal mucosal weight per 100 g bodyweight [2] | Length of small intestine per 100 g bodyweight [2] | Whole small intestinal mucosal weight per 100 g bodyweight [2] | change in appearance [3] | Length of post-feed period ([4]; simultaneously with feeding) | Motor index, duodenum [4, 5] | Motor index, jejunum [4, 5] | Motor index, stomach vestibulum [4, 5] | effect on weight of intestinal mucosa (in words) ([1]; versus control) |
| --- | --- | --- | --- | --- | --- | --- | --- | --- | --- | --- | --- |
| Glucagon-like peptide-1: peptide hormone which occurs in a region of preproglucagon containing no glicentin (HAEGTFTSDVSSYLEGQAAKEFIAWLVKGR; ends and bridges not checked; UniProt P01275 98-127, looked up) [reference compound] | 0.498 ± 0.042 g | – | – | – | – | – | – | – | – | – | – |
| B1 | 0.614 ± 0.025 g | 0.57 ± 0.04 g/100 g bodyweight | 0.75 ± 0.08 g/100 g bodyweight | 66.4 ± 1.7 cm/100 g bodyweight | 1.32 ± 0.03 g/100 g bodyweight | no change in appearance | 13.6 ± 1.0 h | 0.675 ± 0.4 | 1.087 ± 0.2 | 0.878 ± 0.1 | significantly increases |
